Results from patent US12692524B2, “Sialyltransferases and their use in producing sialylated oligosaccharides” (Chr. Hansen A/S, priority 2017, dated 2026).

Legend:
[1] = In vitro sialylation of LNT by protein extracts, LST-a/-b quantified by LC-MS/MS; format: biochemical; settings: 5 mM LNT, 10 mM CMP-Neu5Ac, 16 hours, LC-MS/MS; relative quantity; n.d.: not detectable
Experimental: Escherichia coli BL21(DE3) harbouring plamids encoding for 100 sialyltransferases were grown at 30° C. in 100 ml shake flasks filled with 20 ml of 2YT medium supplemented with ampicillin 100 μg ml^−1. When the cultures reached an OD600 of 0.1 to 0.3, gene expression was induced by addition of 0.3 mM IPTG and the incubation was continued for 12 to 16 hours. Cells were harvested by centrifugation and mechanically disrupted in a defined volume of 50 mM Tris-HCl pH7.5 using glass beads. The protein extract was kept on ice until the assay started. The in vitro assay was carried out in a total volume of 25 μl including 50 mM Tris-HCl pH7.5, 5 mM MgCl2, 10 mM CMP-Neu5Ac and 5 mM LNT. The assay started with the addition of 3 μl protein extract and continued for 16 hours. Product formation was determined by mass spectrometry.
Mass spectrometry analysis was performed by MRM (multiple reaction monitoring) using a LC Triple-Quadrupole MS detection system. Precursor ions are selected and analyzed in quadrupole 1, fragmentation takes place in the collision cell using argon as CID gas, selection of fragment ions is performed in quadrupole 3. Chromatographic separation of lactose, 3′-Sialyllactose and 6′-Sialyllactose after dilution of culture supernatant 1:100 with H2O (LC/MS Grade), was performed on a XBridge Amide HPLC column (3.5 μm, 2.1×50 mm (Waters, USA) with a XBridge Amide guard cartridge (3.5 μm, 2.1×10 mm) (Waters, USA). Column oven temperature of the HPLC system was 50° C. The mobile phase was composed of acetonitrile:H2O with 10 mM ammonium acetate. A 1 μl sample was injected into the instrument; the run was performed for 3.60 min with a flow rate of 400 μl/min. 3′-Sialyllactose and 6′-Sialyllactose were analyzed by MRM in ESI positive ionization mode. The mass spectrometer was operated at unit resolution. Sialyllactose forms an ion of m/z 656.2 [M+Na]. The precursor ion of Sialyllactose was further fragmented in the collision cell into the fragment ions m/z 612.15, m/z 365.15 and m/z 314.15. Collision energy, Q1 and Q3 Pre Bias were optimized for each analyte individually. Chromatographic separation of lactose, LNT-II, LNT and LST-a or -b after dilution of particle-free biocatalysis-reaction or crude extract, respectively, 1:50 with H2O (LC/MS Grade), was performed on a XBridge Amide HPLC column (3.5 μm, 2.1×50 mm (Waters, USA) with a XBridge Amide guard cartridge (3.5 μm, 2.1×10 mm) (Waters, USA). Column oven was run at 35° C. The mobile phase was composed of acetonitrile:H2O with 0.1% ammonium hydroxide. A 1 μl sample was injected into the instrument; the run was performed for 3.50 min with a flow rate of 300 μl/min. Lactose, LNT-II, LNT as well as LST-a and -b were analyzed by MRM in ESI negative ionization mode. The mass spectrometer was operated at unit resolution. Lactose forms an ion of m/z 341.00 [M−H]. The precursor ion of Lactose was further fragmented in the collision cell into the fragment ions m/z 179.15, m/z 161.15 and m/z 101.05. LNT-II forms an ion of m/z 544.20 [M−H]. The precursor ion of LNT-II was further fragmented into the fragment ions m/z 382.10, m/z 161.00 and m/z 112.90. LNT forms an ion of m/z 706.20 [M−H]. The precursor ion of LNT was further fragmented into the fragment ions m/z 382.10, m/z 202.10 and m/z 142.00. LST-a and -b forms an ion of m/z 997.20 [M−H]. The precursor ion of LST-a and-b was further fragmented into the fragment ions m/z 290.15, m/z 202.15 and m/z 142.15. Collision energy, Q1 and Q3 Pre Bias were optimized for each analyte individually. Quantification methods were established using commercially available standards (Carbosynth, Compton, UK).
Twenty eight genes were identified to produce LST-a whereas only 6 enzymes synthesized LST-b. […] Irrespectively of the protein overexpression level, sialyltransferases that produced best were selected for determination of Km and Vmax.

[2] = In vivo screening in E. coli #1363/#1730 with lactose as acceptor, sialyllactose identified by TLC; format: cell-based, Escherichia coli BL21(DE3); settings: 1.5 mM lactose, 72 to 96 hours, qualitative via TLC
Experimental: Escherichia coli BL21(DE3) #1363 and #1730 harbouring plasmids encoding for 100 sialyltransferases were grown at 30° C. in 100 ml shake flasks filled with 20 ml of mineral salts medium (Samain et al., J. Biotech. 1999, 72:33-47) supplemented with 2% (wt/vol) glucose, ampicillin 100 μg ml^−1, kanamycin 15 μg ml^−1 and zeocin 40 μg ml^−1. When the cultures reached an OD600 of 0.1 to 0.3, gene expression was induced by addition of 0.3 mM IPTG. After an incubation for one hour, 1.5 mM lactose was added to #1363 cultures whereas 1.5 mM lactose as well as 1.5 mM sialic acid was added to #1730 cultures. The incubation continued for 72 to 96 hours. Then, cells were harvested by centrifugation and mechanically disrupted in a defined volume using glass beads. Subsequently, samples were applied to thin layer chromatography (TLC) on Silica Gel 60 F254 (Merck KGaA, Darmstadt, Germany). A mixture of butanol:acetone:acetic acid:H2O (35/35/7/23 (v/v/v/v)) was used as mobile phase. For detection of the separated substances, the TLC plate was soaked with thymol reagent (0.5 g thymol solved in 95 ml ethanol, 5 ml sulfuric acid added) and heated.
In the entire screening, thirty two genes were identified to encode for α-2,3-sialyltransferases, thus producing 3′-SL. 19 enzymes synthesized 6′-SL and were depicted as α-2,6-sialyltransferases. An α-2,3- as well as an α-2,6-sialyltransferase activity could only be observed for 3 enzymes. […] The screening appeared highly accurate since the described activities of extensively characterized sialyltransferases, e. g. […] Regarding the product formation, the experimental setting allowed a semi-quantitative comparison of the screened enzymes. But to achieve deeper knowledge about their kinetic properties, the 3 potentially best performing α-2,3- and α-2,6-sialyltransferases were applied to in vitro assays.

B1: SiaT24: sialyltransferase of Avibacterium paragaffinarum, acc. WP_021724759, SEQ ID NO: 9 (protein, listed as Avibacterium paragallinarum)
chain: MRKIITFFSLFFSISAWCQKMEIYLDYASLPSLNMILNLVENKNNEKVERIIGFERFDFNKEILNSFSKERIEFSKVSILDIKEFSDKLYLNIEKSDTPVDLIIHTNLDHSVRSLLSIFKTLSPLFHKINIEKLYLYDDGSGNYVDLYQHRQENISAILIEAQKKLKDALENRETDTDKLHSLTRYTWHKIFPTEYILLRPDYLDIDEKMQPLKHFLSDTIVSMDLSRFSHFSKNQKELFLKITHFDQNIFNELNIGTKNKEYKTFIFTGTTTWEKDKKKRLNNAKLQTEILESFIKPNGKFYLGNDIKIFFKGHPKGDDINDYIIRKTGAEKIPANIPFEVLMMTNSLPDYVGGIMSTVYFSLPPKNIDKVVFLGSEKIKNENDAKSQTLSKLMLMLNVITPEQIFFEEMPNPINF
Relative efficacy of sialyltransferases regarding in-vitro production of sialyllacto-N-tetraoses: LST-a [1]: 835
Production of sialyllactose in-vivo [2]: 3′-SL

B2: SiaT17: sialyltransferase of Photobacterium phosphoreum JT-ISH-467, acc. BAF63530, SEQ ID NO: 8 (protein, listed as Photobacterium phosphoreum)
chain: MGCNSDSKHNNSDGNITKNKTIEVYVDRATLPTIQQMTQIINENSNNKKLISWSRYPINDETLLESINGSFFKNRPELIKSLDSMILTNEIKKVIINGNTLWAVDVVNIIKSIEALGKKTEIELNFYDDGSAEYVRLYDFSRLPESEQEYKISLSKDNIQSSINGTQPFDNSIENIYGFSQLYPTTYHMLRADIFETNLPLTSLKRVISNNIKQMKWDYFTTFNSQQKNKFYNFTGFNPEKIKEQYKASPHENFIFIGTNSGTATAEQQIDILTEAKKPDSPIITNSIQGLDLFFKGHPSATYNQQIIDAHNMIEIYNKIPFEALIMTDALPDAVGGMGSSVFFSLPNTVENKFIFYKSDTDIENNALIQVMIELNIVNRNDVKLISDLQ
Relative efficacy of sialyltransferases regarding in-vitro production of sialyllacto-N-tetraoses: LST-a [1]: 1.24 × 10^3
Production of sialyllactose in-vivo [2]: 3′-SL

B3: SiaT22: sialyltransferase of Streptococcus entericus, acc. WP_018369230, SEQ ID NO: 13 (protein, listed as Streptococcus entericus)
chain: MKKVYFCHTVYHLLITLCKISVEEQVEIIVFDTVSNHELIVQKIRDVFVNTTVLFAEQNTDFSILEIDRATDIYVFNDWTPIGAYLRKNKLFYHLIEDGYNYHEYNVYANALTMKRRLLNFVLRREEPSGFSRYVRSIEVNRVKYLPNDCRKSKWVEKPRSALFENLVPEHKQKIITIFGLENYQDSLRGVLVLTQPLVQDYWDRDITTEEEQLEFYRQIVESYGEGEQVFFKIHPRDKVDYSSLTNVIFLKKNVPMEVYELIADCHFTKGITHSSTALDFLSCVDKKITLKQMKANS
Relative efficacy of sialyltransferases regarding in-vitro production of sialyllacto-N-tetraoses: LST-a [1]: 564
Production of sialyllactose in-vivo [2]: 3′-SL

B4: SiaT21: sialyltransferase of Vibrio harveyi, acc. WP_017817635, SEQ ID NO: 21 (protein, listed as Vibrio harveyi)
chain: MDSSPENTSSTLEIYIDSATLPSLQHMVKIIDEQSGNKKLINWKRYPIDDELLLDKINALSFSDTTDLTRYMESILLIGDIKRVVINGNSLSNYNIVGVMRSINALGLDLDVEINFYDDGSAEYVRLYNFSQLPEAERELLVSMSKNNILAAVNGIGSYDSGSPENIYGFAQIYPATYHMLRADIFDTDLEIGLIRDILGDNVKQMKWGQFLGFNEEQKELFYQLTSFNPDKIQAQYKESPNKNFVFVGTNSRSATAEQQINIIKEAKKLDSEIIPNSIDGYDLFFKGHPSATYNQQIVDAHDMTEIYNRTPFEVLAMTSSLPDAVGGMGSSLFFSLPKTVETKFIFYKSGTDIESNALIQVMLKLGIITDEKVRFTTDIK
Relative efficacy of sialyltransferases regarding in-vitro production of sialyllacto-N-tetraoses: LST-a [1]: 12
Production of sialyllactose in-vivo [2]: 3′-SL

B5: SiaT31: sialyltransferase of Alistipes sp. CAG:268, acc. CDC95697, SEQ ID NO: 22 (protein, listed as Alistipes sp.)
chain: MASCSDDDKEQTGFQIDDGSGFLSLDAAARSGSIAITANNSWSVTQDKDSEWLTLSTTSGAAGRTEIGIMLEANPGEARNAGLTFNSGGRTYPFVITQSAHVTADFDDADHCFYITFGTLPTLYAGLHVLSHDKPSYVFFQRSQTFRPEEFPAHAEVTIAADPSANATDEDMERMRTAMKQQILKINVEDPTAVFGLYVDDLRCGIGYDWFVAQGIDSTRVKVSMLSDGTGTYNNFYNYFGDPATAEQNWENYAAQVEALDWQHGGRFPETRMPDGFDFYEWPYYLATRPNYRLVLQDDDLLEATSPFMTERLQQMRTESKQPYELLASLPAEARQRFFRMAGFDYDAFAALFDASPKKNLVIIGTSHTSEESEAQQAAYVERIIGDYGTAYDIFFKPHPADSSSSNYEERFEGLTLLPGQMPFEIFVWSLLDKVDLIGGYSSTVFLTVPVEKTGFIFAANAESLPRPLNVLFRNAEHVRWIQ
Relative efficacy of sialyltransferases regarding in-vitro production of sialyllacto-N-tetraoses: LST-a [1]: 4
Production of sialyllactose in-vivo [2]: 3′-SL

B6: SiaT30: sialyltransferase of Haemophilus parahaemolyticus HK385, acc. EIJ71207, SEQ ID NO: 19 (protein, listed as Haemophilus parahaemolyticus)
chain: MTEQYIKNVEVYLDYATIPTLNYFYHFTENKDDIATIRLFGLGRFNISKSIIESYPEGIIRYCPIIFEDQTAFQQLFITLLTEDSFCQYRFNFHINLFHSWKMLIPLLHIIWQFKHKVLDIKLNFYDDGSEGLVTLSKIEQNYSSEILQKIIDIDSQSFYADKLSFLDEDIARYLWNSLFESHYYLLNDFLLKNEKLSLLKNSIKYCHIMDLERYLQFTQEEKDFFNELLGINIQSLEDKIKIFQQKKTFIFTGTTIFSLPKEEEETLYRLHLNAILNYIHPNGKYFIGDGFTLVIKGHPHQKEMNSRLEKSFEKAVMLPDNIPFEILYLIGCKPDKIGGFVSTSYFSCDKKNIADLLFISARQEEVRKNDYLFNIQYQLRDMMIKTGFIQEEKTHFYSDIPIFIS
Relative efficacy of sialyltransferases regarding in-vitro production of sialyllacto-N-tetraoses: LST-a [1]: 17
Production of sialyllactose in-vivo [2]: 3′-SL
